From patent US7985736B2, “High throughput screen utilizing newly discovered intramolecular neuronal calcium channel interactions to discover new analgesics” (The John Hopkins University, priority 2004, dated 2011)
Values joined by “and” are separate entries in the source; they are usually repeats but may differ in a detail not shown here. Identical values can stand only once.

Target: T1, N-type (α1B) Ca2+ channels (Homo sapiens, UniProt Q00975)
T1 construct: transferred by EcoRI and Bgl II sites into the full-length α1B construct; expressed in transfected cells; host or cells: HEK293
Assay: Whole-cell G/Q analysis and prepulse facilitation of recombinant N-type channels coexpressed with peptide in HEK293 cells
Type: cell-based
Details: for Effect on G/Q slope (Gmax-Qmax relation), with Gβγ: peptide coexpressed with channels and Gβγ, Gmax after 100 mV prepulse
From the text: FIG. 3A illustrates an approach for N-type channels without Gβγ coexpression. Exemplar currents activated quickly and were barely facilitated by strong prepulse depolarization (FIG. 3A, left). The slight residual prepulse facilitation reflects basal endogenous Gβγ activation. To estimate open probability, two intermediary parameters were specified. First, to gauge the number of channels in a cell (Nchannel), the channel gating current at the reversal potential for ionic current were isolated (FIG. 3A, middle left) (Jones et al., 1999). The area under this current yields the maximal gating charge Qmax, where Qmax=Nchannel×qmax, and qmax is the maximal gating charge per channel. Second, Gmax for a given cell, the maximal ionic current conductance determined as the slope of the peak current-voltage relation at depolarized potentials were determined (FIG. 3A, middle right, line). Here and throughout, current-voltage relations were determined after a 100 mV prepulse, which transiently relieves all G protein inhibition (Colecraft et al., 2000), thus eliminating these inhibitory effects in the estimate of Gmax. Accordingly, Gmax=Nchannel×Po,max×g, where Po,max is the maximal channel open probability at saturating de-polarization, and g is the conductance of a single open channel. In combination, then, a plot of Gmax versus Qmax for multiple cells ([…]) would describe a linear relation with slope equal to Po,max×g/qmax. Because g and qmax are unchanged by G protein modulation (Colecraft et al., 2001; Jones et al., 1997; Patil et al., 1996), this slope (G/Q=0.44±0.03 nS/fC) is proportional to Po,max . . . FIG. 3B documents the supporting results for N-type channels coexpressed with Gβγ. Gmax determined after prepulse de-polarization, when plotted against Qmax, specifies an identical slope to that without Gβγ (FIG. 3B, right, G/Q=0.43±0.04 nS/fC). […] Free NTB peptide with α1B channels. Initially, an NTB-CFP peptide was employed to visually confirm expression was coexpressed. […] By contrast, coexpressing channels with NTB-CFP and Gβγ produced remarkable effects (FIG. 3D). […] More telling were small ionic current amplitudes despite gating current magnitudes on par with controls (FIG. 3D, middle panels). Consequently, there was a significant ^w6-fold depression of the Gmax-Qmax plot (FIG. 3D, right). If NTB-CFP were simply chelating Gβγ (FIG. 2C), the G/Q slope would be unchanged from control. Instead, the suppression of G/Q indicates constitutive inhibition of channel opening.
Cells were transiently transfected and cultured in 10 cm plates (Brody et al., 1997). For 2+Ca^2+ channels, 8 μg was used of each of cDNAs of the desired a1, rat brain β2a (Perez-Reyes et al., 1992), and rat brain a^28 (Tomlinson et al., 1993) subunits; along with 2 μg T-antigen cDNA. N-type α1B, human origin (NM000718); L-type α1C, rabbit (Wei et al., 1991) (X15539). Gβγ coexpressed with 4 μg each of Gβ1 (Sugimoto et al., 1985) and Gγ2 (Gautam et al., 1990). For coexpression of N-terminal peptides, channel subunit cDNA reduced to 6 μg, while adding 14 μg peptide cDNA. For receptor experiments, 0.5 μg cDNA for m2R (below) applied with other cDNAs.
Whole-cell current records were made with Axopatch 200B (Axon Instruments, Calif.), 1-3 days posttransfection. Pipets, 1.5-3 MΩ before 60-75% series resistance compensation. Internal solution: 135 mM CsMeSO4, 5 mM CsCl, 10 mM EGTA, 10 mM HEPES, 1 mM MgCl2, and 4 mM MgATP. External solution: 150 mM TEAMeSO4, 10 mM HEPES, 2 mM CaCl2, and 1 mM MgCl2. During constitutive inhibition (or as noted for some chimeras), 20 mM BaCl2 was substituted for 2 mM CaCl2, and the resulting solution was diluted 1.08×. To compare across external solutions, a conversion factor of 3.18 was used. Currents and conductances with 20 mM Ba^2+ were thus scaled×1/3.18 to facilitate uniform comparison of values, as if all data had been collected with 2 mM Ca^2+. When applied, conversion is denoted by asterisk (*). […]

T1 sequence (Q00975 whole entry, other chains not shown): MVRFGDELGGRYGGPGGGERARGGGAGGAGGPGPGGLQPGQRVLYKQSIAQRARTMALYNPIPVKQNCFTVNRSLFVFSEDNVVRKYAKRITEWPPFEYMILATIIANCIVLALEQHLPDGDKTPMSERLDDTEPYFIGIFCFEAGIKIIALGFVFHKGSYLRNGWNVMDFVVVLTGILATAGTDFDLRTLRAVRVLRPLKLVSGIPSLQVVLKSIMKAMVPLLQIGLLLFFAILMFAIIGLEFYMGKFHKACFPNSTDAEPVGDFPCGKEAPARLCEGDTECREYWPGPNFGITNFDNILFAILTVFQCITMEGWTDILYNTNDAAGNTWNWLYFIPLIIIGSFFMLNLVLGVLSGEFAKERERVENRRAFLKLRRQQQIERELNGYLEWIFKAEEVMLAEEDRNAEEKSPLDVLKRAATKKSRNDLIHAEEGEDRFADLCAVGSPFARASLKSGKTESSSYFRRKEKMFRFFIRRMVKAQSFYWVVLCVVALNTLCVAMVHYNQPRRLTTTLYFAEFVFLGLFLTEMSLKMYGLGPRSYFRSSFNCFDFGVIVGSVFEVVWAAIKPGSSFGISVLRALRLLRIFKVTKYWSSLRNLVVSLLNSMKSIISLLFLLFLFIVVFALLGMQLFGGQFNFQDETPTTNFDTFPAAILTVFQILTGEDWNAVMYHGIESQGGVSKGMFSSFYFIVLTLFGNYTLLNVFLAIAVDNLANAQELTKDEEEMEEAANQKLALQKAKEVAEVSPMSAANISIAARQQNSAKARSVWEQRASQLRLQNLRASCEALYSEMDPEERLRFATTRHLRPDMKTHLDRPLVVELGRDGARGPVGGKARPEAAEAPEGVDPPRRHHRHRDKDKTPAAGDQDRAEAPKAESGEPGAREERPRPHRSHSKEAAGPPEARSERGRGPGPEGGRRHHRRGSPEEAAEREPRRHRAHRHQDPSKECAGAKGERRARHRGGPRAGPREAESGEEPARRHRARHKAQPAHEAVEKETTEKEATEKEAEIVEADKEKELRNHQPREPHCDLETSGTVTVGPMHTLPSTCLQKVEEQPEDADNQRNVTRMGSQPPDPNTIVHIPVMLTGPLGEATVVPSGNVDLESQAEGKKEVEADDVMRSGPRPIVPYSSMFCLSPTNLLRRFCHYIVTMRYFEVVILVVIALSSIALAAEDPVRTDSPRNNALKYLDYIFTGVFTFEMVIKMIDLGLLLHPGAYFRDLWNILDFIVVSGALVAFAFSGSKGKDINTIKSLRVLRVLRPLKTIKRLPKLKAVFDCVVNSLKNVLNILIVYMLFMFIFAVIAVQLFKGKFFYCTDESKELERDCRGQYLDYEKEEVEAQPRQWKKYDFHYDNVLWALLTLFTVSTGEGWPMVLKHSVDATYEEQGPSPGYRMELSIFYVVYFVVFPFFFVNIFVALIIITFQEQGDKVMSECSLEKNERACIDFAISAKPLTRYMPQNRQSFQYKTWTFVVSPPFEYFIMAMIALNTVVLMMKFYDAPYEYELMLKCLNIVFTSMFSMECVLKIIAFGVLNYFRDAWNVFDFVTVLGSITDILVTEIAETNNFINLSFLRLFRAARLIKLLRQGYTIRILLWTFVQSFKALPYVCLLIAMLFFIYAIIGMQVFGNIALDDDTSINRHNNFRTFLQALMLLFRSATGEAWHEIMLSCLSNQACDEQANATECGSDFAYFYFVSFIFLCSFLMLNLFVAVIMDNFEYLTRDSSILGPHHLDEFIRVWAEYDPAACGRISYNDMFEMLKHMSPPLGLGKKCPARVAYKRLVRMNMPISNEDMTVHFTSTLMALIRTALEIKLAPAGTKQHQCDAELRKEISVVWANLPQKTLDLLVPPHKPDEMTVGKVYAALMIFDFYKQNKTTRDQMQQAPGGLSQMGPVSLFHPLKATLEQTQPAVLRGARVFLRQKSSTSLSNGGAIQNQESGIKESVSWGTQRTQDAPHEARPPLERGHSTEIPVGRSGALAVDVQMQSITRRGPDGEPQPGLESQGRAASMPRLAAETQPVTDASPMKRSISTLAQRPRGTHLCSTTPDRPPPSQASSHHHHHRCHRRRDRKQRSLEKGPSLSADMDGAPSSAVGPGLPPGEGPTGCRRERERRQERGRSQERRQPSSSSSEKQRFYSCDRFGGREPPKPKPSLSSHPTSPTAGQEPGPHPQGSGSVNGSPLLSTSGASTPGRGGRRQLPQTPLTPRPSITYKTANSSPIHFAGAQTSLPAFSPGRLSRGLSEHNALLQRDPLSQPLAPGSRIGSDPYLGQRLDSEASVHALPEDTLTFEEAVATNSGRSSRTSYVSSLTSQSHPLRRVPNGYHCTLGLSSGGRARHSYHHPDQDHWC
T1 sequence (P54290 25-944 partner limits assumed, other chains not shown): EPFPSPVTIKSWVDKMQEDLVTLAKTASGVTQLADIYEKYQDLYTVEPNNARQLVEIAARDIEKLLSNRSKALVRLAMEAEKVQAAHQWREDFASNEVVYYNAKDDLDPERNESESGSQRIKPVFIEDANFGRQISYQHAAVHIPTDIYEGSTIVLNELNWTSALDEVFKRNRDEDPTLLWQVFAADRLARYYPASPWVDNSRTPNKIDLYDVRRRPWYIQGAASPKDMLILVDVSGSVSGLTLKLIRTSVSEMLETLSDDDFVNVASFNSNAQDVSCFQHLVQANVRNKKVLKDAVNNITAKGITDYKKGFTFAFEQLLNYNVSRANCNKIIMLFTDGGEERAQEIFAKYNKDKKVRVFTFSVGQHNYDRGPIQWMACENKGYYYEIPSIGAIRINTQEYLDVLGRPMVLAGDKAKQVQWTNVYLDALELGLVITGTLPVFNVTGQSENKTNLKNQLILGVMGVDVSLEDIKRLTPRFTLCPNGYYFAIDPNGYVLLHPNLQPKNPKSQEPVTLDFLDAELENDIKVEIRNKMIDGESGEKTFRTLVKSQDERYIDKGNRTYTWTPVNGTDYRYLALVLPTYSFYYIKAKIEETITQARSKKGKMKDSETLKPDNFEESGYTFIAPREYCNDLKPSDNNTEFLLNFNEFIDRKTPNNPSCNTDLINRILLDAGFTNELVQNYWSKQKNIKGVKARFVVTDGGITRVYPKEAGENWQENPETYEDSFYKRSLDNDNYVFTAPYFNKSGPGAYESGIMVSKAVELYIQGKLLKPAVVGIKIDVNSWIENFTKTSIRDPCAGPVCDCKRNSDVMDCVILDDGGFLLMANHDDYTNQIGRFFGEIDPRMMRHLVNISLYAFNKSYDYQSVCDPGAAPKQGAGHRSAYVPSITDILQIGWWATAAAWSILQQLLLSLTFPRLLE
T1 sequence (P54290 945-1091 partner limits assumed, other chains not shown): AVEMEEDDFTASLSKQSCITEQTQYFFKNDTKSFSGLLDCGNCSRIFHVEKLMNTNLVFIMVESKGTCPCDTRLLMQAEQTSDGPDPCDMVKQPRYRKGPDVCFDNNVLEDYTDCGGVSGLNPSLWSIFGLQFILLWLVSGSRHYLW

NTC: NH3 terminus of L-type channel α1C subunit, free peptide [reference compound]
Effect on G/Q slope (Gmax-Qmax relation), with Gβγ: had no effect | Effect on G/Q slope and currents, without Gβγ (peptide coexpressed with channels, absent Gβγ): had no effect

B1: NTB: NH3 terminus of N-type channel α1B subunit, residues 1-95, expressed as free peptide (SEQ ID NO.: 1) (protein, listed as Homo sapiens)
chain: MVRFGDELGGRYGGPGGGERARGGGAGGAGGPGPGGLQPGQRVLYKQSIAQRARTMALYNPIPVKQNCFTVNRSLFVFSEDNVVRKYAKRITEWP
DF (prepulse facilitation): 2.64±0.18 | Induction time of constitutive inhibition after receptor activation: 10 to 15 min and ~10 min | Reversal of constitutive inhibition on removal of carbachol: did not reverse inhibition | Functional profile with m2R, absent carbachol (channels + m2R + NTB peptide, 0 min CCH): indistinguishable from control N-type channels | G/Q slope with m2R and carbachol (channels + m2R + free NTB peptide, carbachol ≧30 min (50 μM CCH)): marked suppression of the G/Q slope | Conversion to constitutively reluctant channels (deduced from DF˜4 via FIG. 7B model, free NTB with Gβγ): ~75% | DF (degree of prepulse facilitation) (free NTB with Gβγ): ~4 | Effect on G/Q slope (Gmax-Qmax relation), with Gβγ: identical to those obtained with NTB-CFP
